Results from patent US20250283871A1, “COMPOSITIONS AND METHODS FOR MODULATING THE INTERACTION BETWEEN SS18-SSX FUSION ONCOPROTEIN AND NUCLEOSOMES” (Dana-Farber Cancer Institute, Inc., priority 2020, published 2025).
“And” between values parts separate entries of the source, which are not always exact repeats. Identical values can stand only once. Blank lines part the entries; values can stand above or below the substance they belong to.

Columns and labels:
[1] = target: cellular chromatin (endogenous nucleosomes; core histones H2A, H2B, H3, H4) (human) (UniProt P0C0S8); test: cell-based or functional assay
[2] = target: recombinant H2A K119Ub mononucleosomes (UniProt P04908); test: AlphaLISA; 95% CI 2.3-9.1
[3] = target: recombinant, unmodified mononucleosomes (UniProt P04908); test: AlphaLISA; 95% CI 9.1-53.3
[4] = target: recombinant H2A K119Ub mononucleosomes (UniProt P04908); test: AlphaLISA; 95% CI 7.2-48.5
[5] = target: LZIC (sp|Q8WZA0|LZIC_HUMAN) (human) (UniProt Q8WZA0); test: HA affinity purification from HEK-293T nuclear extract, mass spectrometry peptide counts
[6] = target: KCNMA1 (tr|A0A1W2PP06|A0A1W2PP06_HUMAN) (human) (UniProt Q12791); test: as above
[7] = target: LPGAT1 (sp|Q92604|LGAT1_HUMAN) (human) (UniProt Q92604); test: as above
[8] = target: mammalian mononucleosome (HEK293T) carrying histone H3 K79me1 (human (HEK-293T cells)) (UniProt P68431); test: MBP-SSX1 78aa pull-down of pooled HEK293T mononucleosomes, targeted quantitative histone MS; input c3-c5: 0.268, 0.441, 0.301
[9] = target: mammalian mononucleosome (HEK293T) carrying histone H3 K79me2 (human (HEK-293T cells)) (UniProt P68431); test: MBP-SSX1 78aa pull-down of pooled HEK293T mononucleosomes, targeted quantitative histone MS; input c3-c5: 0.498, 0.469, 0.455
[10] = target: mammalian mononucleosomes (HEK293T) carrying H2A(12to17)K15ac1 (mammalian (HEK293T)) (UniProt P0C0S8); test: MBP-SSX1 78aa pull-down, targeted histone MS
[11] = target: mammalian mononucleosomes (HEK293T) carrying H4(20to23)K20me3 (mammalian (HEK293T)) (UniProt P62805); test: MBP-SSX1 78aa pull-down, targeted histone MS
[12] = target: mammalian mononucleosomes (HEK293T) carrying H4(4to17)K5ac1K16ac1me0 (mammalian (HEK293T)) (UniProt P62805); test: MBP-SSX1 78aa pull-down, targeted histone MS
[13] = target: mammalian mononucleosomes (HEK293T) carrying H2A(4to11)K5ac1 (mammalian (HEK293T)) (UniProt P0C0S8); test: MBP-SSX1 78aa pull-down, targeted histone MS
[14] = target: mammalian mononucleosomes (HEK293T) carrying H4(4to17)K5ac1K8ac1me0 (mammalian (HEK293T)) (UniProt P62805); test: MBP-SSX1 78aa pull-down, targeted histone MS
[15] = target: mammalian mononucleosomes (HEK293T) carrying H2A(4to11)ac0 (mammalian (HEK293T)) (UniProt P0C0S8); test: MBP-SSX1 78aa pull-down, targeted histone MS
[16] = target: mammalian mononucleosomes (HEK293T) carrying H3K9me3S10ph1K14ac0 (mammalian (HEK293T)) (UniProt P68431); test: MBP-SSX1 78aa pull-down, targeted histone MS
[17] = target: mammalian mononucleosomes (HEK293T) carrying H3K9me1S10ph1K14ac1 (mammalian (HEK293T)) (UniProt P68431); test: MBP-SSX1 78aa pull-down, targeted histone MS
[18] = target: mammalian mononucleosomes (HEK293T) carrying H2A(4to11)K9ac1 (mammalian (HEK293T)) (UniProt P0C0S8); test: MBP-SSX1 78aa pull-down, targeted histone MS
[19] = target: mammalian mononucleosomes (HEK293T) carrying H3K4ac1 (mammalian (HEK293T)) (UniProt P68431); test: MBP-SSX1 78aa pull-down, targeted histone MS
[20] = target: mammalian mononucleosomes (HEK293T) carrying H4(20to23)K20me1 (mammalian (HEK293T)) (UniProt P62805); test: MBP-SSX1 78aa pull-down, targeted histone MS
[21] = target: mammalian mononucleosomes (HEK293T) carrying H4(4to17)K12ac1K16ac1me0 (mammalian (HEK293T)) (UniProt P62805); test: MBP-SSX1 78aa pull-down, targeted histone MS
[22] = target: mammalian mononucleosomes (HEK293T) carrying H4(4to17)ac0me0 (mammalian (HEK293T)) (UniProt P62805); test: MBP-SSX1 78aa pull-down, targeted histone MS
[23] = target: mammalian mononucleosomes (HEK293T) carrying H3K4me1 (mammalian (HEK293T)) (UniProt P68431); test: MBP-SSX1 78aa pull-down, targeted histone MS
[24] = target: mammalian mononucleosomes (HEK293T) carrying H2A(12to17)ac0 (mammalian (HEK293T)) (UniProt P0C0S8); test: MBP-SSX1 78aa pull-down, targeted histone MS
[25] = target: mammalian mononucleosomes (HEK293T) carrying H4(4to17)K8ac1K12ac1me0 (mammalian (HEK293T)) (UniProt P62805); test: MBP-SSX1 78aa pull-down, targeted histone MS
[26] = target: mammalian mononucleosomes (HEK293T) carrying H2AZ(1to19)K4ac1 (mammalian (HEK293T)) (UniProt P0C0S5); test: MBP-SSX1 78aa pull-down, targeted histone MS
[27] = target: mammalian mononucleosomes (HEK293T) carrying H4(4to17)K5ac1K8ac1K12ac1me0 (mammalian (HEK293T)) (UniProt P62805); test: MBP-SSX1 78aa pull-down, targeted histone MS
[28] = target: mammalian mononucleosomes (HEK293T) carrying H4(4to17)K5ac1K8ac1K12ac1K16ac1me0 (mammalian (HEK293T)) (UniProt P62805); test: MBP-SSX1 78aa pull-down, targeted histone MS
[29] = target: mammalian mononucleosomes (HEK293T) carrying H4(4to17)K8ac1K12ac1K16ac1me0 (mammalian (HEK293T)) (UniProt P62805); test: MBP-SSX1 78aa pull-down, targeted histone MS
[30] = target: mammalian mononucleosomes (HEK293T) carrying H4(4to17)K5ac1me0 (mammalian (HEK293T)) (UniProt P62805); test: MBP-SSX1 78aa pull-down, targeted histone MS
[31] = target: mammalian mononucleosomes (HEK293T) carrying H4(4to17)K16ac1me0 (mammalian (HEK293T)) (UniProt P62805); test: MBP-SSX1 78aa pull-down, targeted histone MS
[32] = target: mammalian mononucleosomes (HEK293T) carrying H2AZ(1to19)ac0 (mammalian (HEK293T)) (UniProt P0C0S5); test: MBP-SSX1 78aa pull-down, targeted histone MS
[33] = target: mammalian mononucleosomes (HEK293T) carrying H3K4me3 (mammalian (HEK293T)) (UniProt P68431); test: MBP-SSX1 78aa pull-down, targeted histone MS
[34] = target: mammalian mononucleosomes (HEK293T) carrying H2A(4to11)K5ac1K9ac1 (mammalian (HEK293T)) (UniProt P0C0S8); test: MBP-SSX1 78aa pull-down, targeted histone MS
[35] = target: mammalian mononucleosomes (HEK293T) carrying H2B(1to29)K5ac1 (mammalian (HEK293T)) (UniProt P62807); test: MBP-SSX1 78aa pull-down, targeted histone MS
[36] = target: mammalian mononucleosomes (HEK293T) carrying H4(4to17)K5ac1K8ac1K16ac1me0 (mammalian (HEK293T)) (UniProt P62805); test: MBP-SSX1 78aa pull-down, targeted histone MS
[37] = target: mammalian mononucleosomes (HEK293T) carrying H3K9me2S10ph1K14ac1 (mammalian (HEK293T)) (UniProt P68431); test: MBP-SSX1 78aa pull-down, targeted histone MS
[38] = target: mammalian mononucleosomes (HEK293T) carrying H4(20to23)K20me2 (mammalian (HEK293T)) (UniProt P62805); test: MBP-SSX1 78aa pull-down, targeted histone MS
[39] = target: mammalian mononucleosomes (HEK293T) carrying H4(4to17)K12ac1me0 (mammalian (HEK293T)) (UniProt P62805); test: MBP-SSX1 78aa pull-down, targeted histone MS
[40] = target: mammalian mononucleosomes (HEK293T) carrying H3K4me2 (mammalian (HEK293T)) (UniProt P68431); test: MBP-SSX1 78aa pull-down, targeted histone MS
[41] = target: mammalian mononucleosomes (HEK293T) carrying H4(20to23)K20me0 (mammalian (HEK293T)) (UniProt P62805); test: MBP-SSX1 78aa pull-down, targeted histone MS
[42] = target: mammalian mononucleosomes (HEK293T) carrying H3K9me2S10ph1K14ac0 (mammalian (HEK293T)) (UniProt P68431); test: MBP-SSX1 78aa pull-down, targeted histone MS
[43] = target: mammalian mononucleosomes (HEK293T) carrying H2A(12to17)K13ac1 (mammalian (HEK293T)) (UniProt P0C0S8); test: MBP-SSX1 78aa pull-down, targeted histone MS
[44] = target: TSP1_HUMAN Thrombospondin-1 (human) (UniProt P07996); test: anti-SMARCA4 (BRG1) IP, mass spectrometry, human fibroblasts
[45] = target: cellular chromatin (endogenous nucleosomes; core histones H2A, H2B, H3, H4) (human) (UniProt P0C0S8); test: differential salt extraction, immunoblot

Substance: GFP-SS18-SSX1
FRAP recovery half-time [1]: 33.9 s

Substance: GST-SSXdel7aa (acidic C-term DPEEDDE-->AAAAAAA) (from UniProt Q16384 111-181)
EC50 [4]: 18.7 nM

Substance: MBP-SSX1 78aa protein (from UniProt Q16384 111-188)
log2norm (Light/Heavy) intensity ratio [10]: 0.042 log2 and -0.086 log2
log2norm (Light/Heavy) intensity ratio [11]: -0.109 log2 and 0.055 log2
log2norm (Light/Heavy) intensity ratio [12]: 0.226 log2 and 0.367 log2
log2norm (Light/Heavy) intensity ratio [13]: 0.569 log2 and 0.624 log2
log2norm (Light/Heavy) intensity ratio [14]: 0.107 log2 and 0.094 log2
log2norm (Light/Heavy) intensity ratio [15]: -0.026 log2 and 0.061 log2
log2norm (Light/Heavy) intensity ratio [16]: -0.566 log2 and -1.03 log2
log2norm (Light/Heavy) intensity ratio [17]: -2.67 log2 and -2.51 log2
log2norm (Light/Heavy) intensity ratio [18]: -0.254 log2 and -0.375 log2
log2norm (Light/Heavy) intensity ratio [19]: 0.263 log2 and 0.32 log2
log2norm (Light/Heavy) intensity ratio [20]: -0.427 log2 and -0.443 log2
log2norm (Light/Heavy) intensity ratio [21]: 0.204 log2 and 0.304 log2
log2norm (Light/Heavy) intensity ratio [22]: -0.613 log2 and -0.573 log2
log2norm (Light/Heavy) intensity ratio [23]: 0.74 log2 and 0.353 log2
log2norm (Light/Heavy) intensity ratio [24]: 0.201 log2 and -0.12 log2
log2norm (Light/Heavy) intensity ratio [25]: -0.198 log2 and -0.093 log2
log2norm (Light/Heavy) intensity ratio [26]: -0.217 log2 and 0.048 log2
log2norm (Light/Heavy) intensity ratio [27]: -0.223 log2 and -0.27 log2
log2norm (Light/Heavy) intensity ratio [28]: 0.276 log2 and 0.245 log2
log2norm (Light/Heavy) intensity ratio [29]: 0.677 log2 and 0.625 log2
log2norm (Light/Heavy) intensity ratio [30]: -0.053 log2 and 0.075 log2
log2norm (Light/Heavy) intensity ratio [31]: -0.391 log2 and -0.337 log2
log2norm (Light/Heavy) intensity ratio [32]: -0.784 log2 and -0.697 log2
log2norm (Light/Heavy) intensity ratio [33]: 0.766 log2 and 0.505 log2
log2norm (Light/Heavy) intensity ratio [34]: -0.031 log2 and -0.049 log2
log2norm (Light/Heavy) intensity ratio [35]: 0.273 log2 and 0.323 log2
log2norm (Light/Heavy) intensity ratio [36]: 0.474 log2 and 0.311 log2
log2norm (Light/Heavy) intensity ratio [37]: -0.87 log2 and -1.01 log2
log2norm (Light/Heavy) intensity ratio [38]: -0.414 log2 and -0.391 log2
log2norm (Light/Heavy) intensity ratio [39]: -0.207 log2 and -0.275 log2
log2norm (Light/Heavy) intensity ratio [40]: 0.778 log2 and 0.532 log2
log2norm (Light/Heavy) intensity ratio [41]: 0.017 log2 and 0.092 log2
log2norm (Light/Heavy) intensity ratio [42]: -0.683 log2 and -1.09 log2
log2norm (Light/Heavy) intensity ratio [43]: 0.032 log2 and -0.047 log2

Substance: SMCA4_HUMAN Transcription activator BRG1 (from UniProt P51532 1-1647)
NSAF [44]: 0.000217

Substance: SS18-SSX-bound BAF complexes (HA-SS18-SSX1 purification)
NaCl concentration of elution from chromatin [45]: > 1 M

Substance: wild-type SS18-bound BAF complexes (HA-SS18 WT purification) (from UniProt Q15532 1-387)
NaCl concentration of elution from chromatin [45]: 0.3 to 0.5 M

The next lines start with the values.

FRAP recovery half-time [1]: 10.1 s
Substance: GFP-SS18 WT (from UniProt Q15532 2-418)

EC50 [2]: 4.6 nM
EC50 [3]: 22.1 nM
Substance: GST-SSX1 (78aa) (from UniProt Q16384 111-188)

Total peptides [5]: 1 peptides
Unique peptides [5]: 1 peptides
Total peptides [6]: 1 peptides
Unique peptides [6]: 1 peptides
Total peptides [7]: 1 peptides
Unique peptides [7]: 1 peptides
Substance: HA-SS18 WT (from UniProt Q15532 1-387)

log2norm (Light/Heavy) intensity ratio normalized to histone norm peptide [8]: 0.954 log2 and 0.54 log2
log2norm (Light/Heavy) intensity ratio normalized to histone norm peptide [9]: 0.826 log2 and 0.557 log2
Substance: MBP-SSX1 78aa (from UniProt Q16384 111-188)
